What all share (assay type): cell-based
Experiment [1] has as its system NMDA receptor (NR1 and NR2A). The experiment in a line: Glutamate-induced whole-cell current in transfected HEK293 cells. Here is the method:
(§1) To express the receptors in HEK293 cells, the cells were transfected with 1 μg of each plasmid unless otherwise stated (Shi et al., 1999). The NR1 and NR2A were tagged with green fluorescent protein (GFP) on the extracellular domain to facilitate the identification of transfected cells. […] NMDA receptor mediated current was recorded in the presence of 10 μM glycine. AMPA receptor current was recorded as described (Shi et al., 1999). Pipette solutions contained (in mM) Cs-methanesulfonate 110; CsCl 30; NaCl 4; HEPES 10; EGTA 5; CaCl2 0.5 adjusted to pH 7.3 with CsOH. 1 mM glutamate (for NMDA receptor) or kainate (for AMPA receptor) was pressure (1.0 PSI) applied through a puffer pipette positioned ˜10 μm to the cells. A program based on Igor (WaveMetrics, Inc., Lake Oswego, Oreg.) was used to acquire data on a Macintosh computer.

Experiment [2] has as its system AMPA receptor (GluR2-(R586Q)). Description: Kainate-induced AMPA receptor current in transfected HEK293 cells. The note with it: coexpression of NR3B with GluR2-(R586Q) in HEK293 cells. Here is the method:
as §1

In experiment [3] the test system is NR1 and NR2A tagged with GFP. Description: Expression levels of GFP-tagged NR1 and NR2A by fluorescence intensity. The settings on record: presence or absence of NR3B; NR1 and NR2A individually expressed with NR3B. Here is the method: as §1
The electrophysiological properties of NR3B were tested by expressing NR3B in HEK293 cells. A conventional NMDA receptor channel is formed by a heteromeric combination of NR1, which is a key subunit for functionality, and at least one NR2 subunit, which is modulatory (Dingledine et al., 1999). […] NR1 and NR2A tagged with GFP were individually expressed with NR3B and their expression levels were measured by the fluorescence intensity. The statistical significance in this figure was assessed by Kolmogorov-Smirnov test. […]

B1: NR3B: mouse NR3B NMDA receptor subunit polypeptide (SEQ ID NO: 2), expressed from cDNA plasmid in HEK293 cells (protein, listed as Mus musculus)
chain: MECVQTLWLSLALALARGSWVVRGHPQPCGVPTRAGASVRLAALLPRAPAARARVLAALATPSPRLPHNLSLELVAVASPTRDPASLARGLCQVLAPPGVVASITFPEARPELRLLQFLAAATETPVLSVLRREVRAPLGAPTPFHLQLDWASPLETILDVLVSLVRAHAWEDIALVLCRVRDPSGLVTLWTSRASQAPKFVLDLSQLDSGNDSLRATLALLGTLEGGGTPVSAAVLLGCSTAHAHEVLEAAPPGPQWLLGTPLPAEALPKTGLPPGVLVLGETGQPSLEAAVHDMVELVARALSSMALMHPERALLPAAVNCEDLKTGGSESTARTLARFLSNTSFQGRTGAVWVAGSSQVHVSRHFKVWSLRRDPLGAPAWATVGSWQDGQLDFQPGAAALRVPSPSGTQARPKLRVVTLVEHPFVFTRESDEDGQCPAGQLCLDPGTNDSARLDALFTALENGSVPRTLRRCCYGYCIDLLERLAEDLAFDFELYIVGDGKYGALRDGRWTGLVGDLLAGRAHMAVTSFSINSARSQVVDFTSPFFSTSLGIMVRTRDTASPIGAFMWPLHWSMWVGVFAALHLTALFLTLYEWRSPYGLTPRGRNRGTVFSYSSALNLCYAILFGRTVSSKTPKCPTGRFLMNLWAIFCLLVLSSYTANLAAVMVGDKTFEELSGIHDPKLHHPSQGFRFGTVWESSAEAYIKASFPEMHAHMRRHSAPTTPHGVAMLTSDPPKLNAFIMDKSLLDYEVSIDADCKLLTVGKPFAIEGYGIGLPQNSPLTSNLSEFISRYKSSGFIDLLHDKWYKMVPCGKRVFAVTETLQMGVYHLSGLFVLLCLGLGSALLTSLGEHVFYRLVLPRIRRGNKLQYWLHTSQKIHRALNTGPPEGQQERAEQECSGPKEEQPAADGAGRWRRVRRAVVERERRVRFLLEPGEAGGDHPWLCSNGPGVQAELRELELRIEAARERLRSALLRRGELRAQLGDGTRLRPLRLLHAAPAES
For the molecule B1, the glutamate-induced whole-cell current result in experiment [1] (NR3B coexpressed with NR1 and NR2A in HEK293 cells, compared with NR1 and NR2A alone) was “markedly depressed”. Besides, the “formation of electrophysiologically functional channels” value in experiment [1] (NR3B coexpressed with NR1 only (n=6)), in experiment [1] (NR3B coexpressed with NR2A only (n=5)) and in experiment [1] (expression of NR3B alone in HEK293 cells (n=6)) was “did not result in electrophysiologically functional channels” in each case. In addition, in experiment [1] (NR3B plasmid 0, 1 and 3 μg versus other subunits (each 1 μg), +60 mV, Mg2+-free solution), the “current amplitude with increasing amount of NR3B plasmid” value is recorded as “concomitant decrease in current amplitude”. The “sensitivity of the remaining current to Mg2+ block” value in experiment [1] (NR3B with NR1 and NR2A, presence or absence of 1 mM Mg2+) is “not affected”. Besides, in experiment [2], the “AMPA receptor mediated current” value was “unchanged”. In addition, in experiment [3], the “expression levels of NR1 and NR2A (GFP fluorescence)” value is “did not show any significant difference”.

The values are drawn from patent publication US20050153287A1, “Nr3b nmda receptor subunit compositions and related methods” (priority 2001, published 2005).
